Test results reported in the supplement of paper PMC6757056.
± gives the standard deviation of the averaged measurements.

B1: library; a variant is named by its letters at N, in order (parent)
chain: GCUGUCACCGGUGUAUUACCCUAGUGGUCGACCGGUCUGAUGAGUCUNNNNNNAGACGAAACAGC

Key:
[1] = variants of: B1; assay: FACS-Seq fitted mean relative fluorescence mCherry/BFP without ligand (log10 relative fluorescence); ligand: hypoxanthine (xanthine aptamer); higher = higher reporter protein expression; conditions: HEK293T, ligand present: no
Method in brief: (§1)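 The ribozyme switch sat in an mCherry reporter, delivered by lentivirus into HEK293T libraries along with an EF1α-BFP marker. Enriched cells were incubated 48 h with or without ligand, sorted into 6 bins by mCherry/BFP, and bin genomic DNA was PCR-amplified, barcoded and MiSeq-sequenced. Fluorescence equals the fitted normal mean of the bin counts after normalization. Those log10(mCherry/BFP) means were scaled to five spiked-in control ribozymes.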

[2] = variants of: B1; assay: normalized RNA/DNA level with ligand (relative to sTRSVctl = 100) (log10 (% of sTRSVctl)); ligand: hypoxanthine (xanthine aptamer); higher = less ribozyme self-cleavage, higher mRNA level; conditions: ligand concentration (+) RNA-Seq: 5 mM, HEK293T, reporter: mCherry (pCS4076), ligand present: yes
Method in brief: (§2)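 Ribozyme switch library plasmids with mCherry reporters (eGFP in certain ligand experiments) went into HEK293T cells at 4 µg per 6-well well. Where ligand was used, it was applied 1 h before transfection, and total RNA was extracted with EDTA 72 h later for reverse transcription, amplification, barcoding and sequencing. RNA level is the RNA-to-DNA read ratio normalized to a spiked-in non-cleaving sequence or to the leading sequences, then scaled and log-transformed. Scaling was ×100 with log10, the leading set comprised 25 sequences, and the cutoff was ≥100 DNA reads.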

[3] = variants of: B1; assay: normalized RNA/DNA level without ligand (relative to sTRSVctl = 100) (log10 (% of sTRSVctl)); ligand: hypoxanthine (xanthine aptamer); higher = less ribozyme self-cleavage, higher mRNA level; conditions: HEK293T, reporter: mCherry (pCS4076), ligand present: no
Method in brief: as §2

[4] = variants of: B1; assay: FACS-Seq fitted mean relative fluorescence mCherry/BFP with ligand (log10 relative fluorescence); ligand: hypoxanthine (xanthine aptamer); ligand concentration (+) FACS-Seq: 5 mM; higher = higher reporter protein expression; conditions: HEK293T, ligand present: yes
Method in brief: as §1

| Variant | FACS-Seq fitted mean (log10) [1] | normalized RNA/DNA level with ligand (log10) [2] | normalized RNA/DNA level without ligand (log10) [3] | FACS-Seq fitted mean (log10) [4] |
| --- | --- | --- | --- | --- |
| GCUGUCACCGGUGUAUUACCCUAGUGGUCGACCGGUCUGAUGAGUCUUAUACAAGACGAAACAGC | 0.641 ± 0.013 | 1.93 ± 0.053 | 1.854 ± 0.012 | 0.518 ± 0.019 |
| GCUGUCACCGGUGUAUUACCCUAGUGGUCGACCGGUCUGAUGAGUCUUAUACUAGACGAAACAGC | 0.344 ± 0.0075 | 1.93 ± 0.05 | 1.84 ± 0.065 | 0.343 ± 0.066 |
| GCUGUCACCGGUGUAUUACCCUAGUGGUCGACCGGUCUGAUGAGUCUAAUAGAAGACGAAACAGC | 0.386 ± 0.012 | 1.89 ± 0.027 | 1.63 ± 0.052 | 0.44 ± 0.055 |
| GCUGUCACCGGUGUAUUACCCUAGUGGUCGACCGGUCUGAUGAGUCUCAUAGAAGACGAAACAGC | 1.171 ± 0.0012 | 1.931 ± 0.0061 | 1.767 ± 0.0051 | 0.849 ± 0.08 |
| GCUGUCACCGGUGUAUUACCCUAGUGGUCGACCGGUCUGAUGAGUCUCAUACGAGACGAAACAGC | 0.394 ± 0.013 | 1.903 ± 0.016 | 1.88 ± 0.079 | 0.469 ± 0.045 |
| GCUGUCACCGGUGUAUUACCCUAGUGGUCGACCGGUCUGAUGAGUCUGAUACAAGACGAAACAGC | 0.774 ± 0.022 | 1.93 ± 0.095 | 1.83 ± 0.0097 | 0.711 ± 0.11 |
| GCUGUCACCGGUGUAUUACCCUAGUGGUCGACCGGUCUGAUGAGUCUGAUACGAGACGAAACAGC | -0.036 ± 0.019 | 1.87 ± 0.035 | 1.488 ± 0.0049 | 0.37 ± 0.033 |
| GCUGUCACCGGUGUAUUACCCUAGUGGUCGACCGGUCUGAUGAGUCUAAUACCAGACGAAACAGC | 0.491 ± 0.22 | 1.933 ± 0.019 | 1.895 ± 0.0024 | 0.448 ± 0.018 |
| GCUGUCACCGGUGUAUUACCCUAGUGGUCGACCGGUCUGAUGAGUCUAAUACAAGACGAAACAGC | 0.346 ± 0.053 | 1.88 ± 0.05 | 1.801 ± 0.0096 | 0.496 ± 0.0044 |
| GCUGUCACCGGUGUAUUACCCUAGUGGUCGACCGGUCUGAUGAGUCUAAUACGAGACGAAACAGC | 0.407 ± 0.1 | 1.844 ± 0.01 | 1.44 ± 0.067 | 0.609 ± 0.057 |
| GCUGUCACCGGUGUAUUACCCUAGUGGUCGACCGGUCUGAUGAGUCUUAUAAUAGACGAAACAGC | 0.434 ± 0.04 | 1.93 ± 0.021 | 1.785 ± 0.0039 | 0.588 ± 0.067 |
